B1: Protein ABSCISIC ACID-… 5 (Arabidopsis thaliana (Mouse-ear cress)), Q9SJN0 (parent)
chain: MVTRETKLTSEREVESSMAQARHNGGGGGENHPFTSLGRQSSIYSLTLDEFQHALCENGKNFGSMNMDEFLVSIWNAEENNNNQQQAAAAAGSHSVPANHNGFNNNNNNGGEGGVGVFSGGSRGNEDANNKRGIANESSLPRQGSLTLPAPLCRKTVDEVWSEIHRGGGSGNGGDSNGRSSSSNGQNNAQNGGETAARQPTFGEMTLEDFLVKAGVVREHPTNPKPNPNPNQNQNPSSVIPAAAQQQLYGVFQGTGDPSFPGQAMGVGDPSGYAKRTGGGGYQQAPPVQAGVCYGGGVGFGAGGQQMGMVGPLSPVSSDGLGHGQVDNIGGQYGVDMGGLRGRKRVVDGPVEKVVERRQRRMIKNRESAARSRARKQAYTVELEAELNQLKEENAQLKHALAELERKRKQQYFESLKSRAQPKLPKSNGRLRTLMRNPSCPL

Variants of: B1
Settings: with sumo1_arath SUMO1, P55852
Chain of sumo1_arath SUMO1, P55852 (P55852 whole entry): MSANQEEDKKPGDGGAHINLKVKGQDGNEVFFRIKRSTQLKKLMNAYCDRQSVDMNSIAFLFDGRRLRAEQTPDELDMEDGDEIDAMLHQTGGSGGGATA

Row | Variant | effect of a mutation on the interaction
1 | MVTRETKLTSEREVESSMAQARHNGGGGGENHPFTSLGRQSSIYSLTLDEFQHALCENGKNFGSMNMDEFLVSIWNAEENNNNQQQAAAAAGSHSVPANHNGFNNNNNNGGEGGVGVFSGGSRGNEDANNKRGIANESSLPRQGSLTLPAPLCRKTVDEVWSEIHRGGGSGNGGDSNGRSSSSNGQNNAQNGGETAARQPTFGEMTLEDFLVKAGVVREHPTNPKPNPNPNQNQNPSSVIPAAAQQQLYGVFQGTGDPSFPGQAMGVGDPSGYAKRTGGGGYQQAPPVQAGVCYGGGVGFGAGGQQMGMVGPLSPVSSDGLGHGQVDNIGGQYGVDMGGLRGRKRVVDGPVEKVVERRQRRMIKNRESAARSRARKQAYTVELEAELNQLREENAQLKHALAELERKRKQQYFESLKSRAQPKLPKSNGRLRTLMRNPSCPL [K391R] | disrupting interaction

Source: IntAct's records for PubMed 19276109
